Assay results published in paper PMC6940538 (Angewandte Chemie (International ed. in English), 2019).

Columns and labels:
[1] = biological target: the molecule itself; test: SEC
[2] = biological target: the molecule itself; test: AUC
[3] = biological target: the molecule itself; test: crystal structure

B1: MtmW (enzyme, Streptomyces argillaceus, UniProt Q194Q1 1-326, looked up)
chain: MVAVEFRSLGRSGLSVSEIVYGNLLYPQDDTPDEVVLSSIRAALDAGVTTFDTADVYGMFRSESLLGRALAGTPREELVLCTKVGMPTGFGPNGRGLSRKHVMESVDGSLRRLRVDHIDVYTAHRYDPATPLEELMWTFSDLVRAGKILYVGMSEWPVERIAEAAGIGARLGVPVICHMPRYSMLWRAPEAEVIPACRDLGIGQICYFTLEQGVLTGKYAPGAPPPAGSRATAPKGGRAPLMRRWLDDDKVLGRVERLRPLAEEAGLTTAHLAWVLQNPAVSGAVIGSFNAEQVLANAESAGVRLETDLLVRIDEVLGDSVVHDEE
stoichiometry N [1]: ~8
stoichiometry N [2]: 8

B2: MtmW (ΔN3) (enzyme, Streptomyces argillaceus, UniProt Q194Q1 4-326, looked up)
chain: VEFRSLGRSGLSVSEIVYGNLLYPQDDTPDEVVLSSIRAALDAGVTTFDTADVYGMFRSESLLGRALAGTPREELVLCTKVGMPTGFGPNGRGLSRKHVMESVDGSLRRLRVDHIDVYTAHRYDPATPLEELMWTFSDLVRAGKILYVGMSEWPVERIAEAAGIGARLGVPVICHMPRYSMLWRAPEAEVIPACRDLGIGQICYFTLEQGVLTGKYAPGAPPPAGSRATAPKGGRAPLMRRWLDDDKVLGRVERLRPLAEEAGLTTAHLAWVLQNPAVSGAVIGSFNAEQVLANAESAGVRLETDLLVRIDEVLGDSVVHDEE
stoichiometry N [3]: 8
